Assay results taken from publication PMC11927390 (2025).

B1: Fc-tagged human NKG2D (Fc fusion)
chain: IWSAVFLNSLFNQEVQIPLTESYCGPCPKNWICYKNNCYQFFDESKNWYESQASCMSQNASLLKVYSKEDQDLLKLVKSYHWMGLVHIPTNGSWQWEDGSILSPNLLTIIEMQKGDCALYASSFKGYIENCSTPNTYICMQRTV

What was measured:
Fc-tagged human NKG2D = biological target: B1; test: SPR
MICB = test: SPR

| Kd (Fc-tagged human NKG2D) | Kd (MICB) | Binder |
| --- | --- | --- |
| 83.2 nM |  | human MICA (MHC class I polypeptide-related sequence A), soluble recombinant (ligand) EPHSLRYNLTVLSWDGSVQSGFLTEVHLDGQPFLRCDRQKCRAKPQGQWAEDVLGNKTWDRETRDLTGNGKDLRMTLAHIKDQKEGLHSLQEIRVCEIHEDNSTRSSQHFYYDGELFLSQNLETKEWTMPQSSRAQTLAMNVRNFLKEDAMKTKTHYHAMHADCLQELRRYLKSGVVLRRTVPPMVNVTRSEASEGNITVTCRASGFYPWNITLSWRQDGVSLSHDTQQWGDVLPDGNGTYQTWVATRICQGEEQRFTCYMEHSGNHSTHPVPSGKVLVLQSHW |
|  | 105 nM | B1 |
| 138 nM |  | human ULBP1 (ligand) GWVDTHCLCYDFIITPKSRPEPQWCEVQGLVDERPFLHYDCVNHKAKAFASLGKKVNVTKTWEEQTETLRDVVDFLKGQLLDIQVENLIPIEPLTLQARMSCEHEAHGHGRGSWQFLFNGQKFLLFDSNNRKWTALHPGAKKMTEKWEKNRDVTMFFQKISLGDCKMWLEEFLMYWEQMLDPTKPPSLAPG |
| 836 nM |  | human ULBP3 (ligand) DAHSLWYNFTIIHLPRHGQQWCEVQSQVDQKNFLSYDCGSDKVLSMGHLEEQLYATDAWGKQLEMLREVGQRLRLELADTELEDFTPSGPLTLQVRMSCECEADGYIRGSWQFSFDGRKFLLFDSNNRKWTVVHAGARRMKEKWEKDSGLTTFFKMVSMRDCKSWLRDFLMHRKKRLEPTAPPTMAPG |
| 262 nM |  | human ULBP2 (ligand) GRADPHSLCYDITVIPKFRPGPRWCAVQGQVDEKTFLHYDCGNKTVTPVSPLGKKLNVTTAWKAQNPVLREVVDILTEQLRDIQLENYTPKEPLTLQARMSCEQKAEGHSSGSWQFSFDGQIFLLFDSEKRMWTTVHPGARKMKEKWENDKVVAMSFHYFSMGDCIGWLEDFLMGMDSTLEPSAGAPLAMSS |
| 2.69 nM |  | human ULBP6-02 extracellular domain (residues R26-G218) (ligand, glycosylation of residues N68 and N82 (in the crystal structure)) RRDDPHSLCYDITVIPKFRPGPRWCAVQGQVDEKTFLHYDCGNKTVTPVSPLGKKLNVTMAWKAQNPVLREVVDILTEQLLDIQLENYTPKEPLTLQARMSCEQKAEGHSSGSWQFSIDGQTFLLFDSEKRMWTTVHPGARKMKEKWENDKDVAMSFHYISMGDCIGWLEDFLMGMDSTLEPSAGAPLAMSSG |
| 42.7 nM |  | human ULBP6-01 (residues G26-G218) (ligand) GRDDPHSLCYDITVIPKFRPGPRWCAVQGQVDEKTFLHYDCGNKTVTPVSPLGKKLNVTTAWKAQNPVLREVVDILTEQLRDIQLENYTPKEPLTLQARMSCEQKAEGHSSGSWQFSIDGQIFLLFDSEKRMWTTVHPGARKMKEKWENDKDVAMSFHYISMGDCIGWLEDFLMGMDSTLEPSAGAPLAMSSG |
| 93.4 nM |  | human ULBP5 (ligand) GLADPHSLCYDITVIPKFRPGPRWCAVQGQVDEKTFLHYDCGSKTVTPVSPLGKKLNVTTAWKAQNPVLREVVDILTEQLLDIQLENYIPKEPLTLQARMSCEQKAEGHGSGSWQLSFDGQIFLLFDSENRMWTTVHPGARKMKEKWENDKDMTMSFHYISMGDCTGWLEDFLMGMDSTLEPSAGAPPTMSSG |
